Assay [1] concerns the target human T-cell receptor beta chain with variable region Vbeta 7.1 (H. sapiens rearranged TCR Vbeta 7.1) (H. sapiens). The assay is described as follows: cell-based or functional assay.
Assay [2] deals with T-cell surface glycoprotein CD4 [Homo sapiens] (Homo sapiens) (UniProt P01730). The assay is described as follows: cell-based or functional assay.

Sequence of human T-cell receptor beta chain with variable region Vbeta 7.1 (H. sapiens rearranged TCR Vbeta 7.1) (H. sapiens) (A0A577 whole entry, form in doubt): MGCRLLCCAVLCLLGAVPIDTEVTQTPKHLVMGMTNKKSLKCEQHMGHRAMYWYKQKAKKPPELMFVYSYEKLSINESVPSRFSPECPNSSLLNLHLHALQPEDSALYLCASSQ

“CART20 anti-CD20 chimeric antigen receptor (scFv of anti-CD20 monoclonal antibody Leu16 in the third-generation CAR backbone), expressed on transduced human T cells” gave a TCR Vβ7.1-positive cells remaining in the control culture (flow cytometry) in assay [1] of 1.2%. In assay [2], this substance had a CD4-positive cells remaining in the control culture (flow cytometry) of 45%.

For the origin of these results see patent US20240207312A1.
